Data taken from paper PMC314469, “Protein Interaction Networks by Proteome Peptide Scanning” (PLoS Biology, 2004).

T1: Yhr016c SH3 (YSC84_YEAST), P32793
T1 chain: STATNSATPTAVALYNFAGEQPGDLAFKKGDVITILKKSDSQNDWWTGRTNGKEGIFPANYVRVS

T2: Rvs167 SH3 (RV167_YEAST), P39743
T2 chain: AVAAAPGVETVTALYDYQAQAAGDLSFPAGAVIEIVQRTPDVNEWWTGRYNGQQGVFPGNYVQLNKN

T3: Boi1 SH3 (BOI1_YEAST), P38041
T3 chain: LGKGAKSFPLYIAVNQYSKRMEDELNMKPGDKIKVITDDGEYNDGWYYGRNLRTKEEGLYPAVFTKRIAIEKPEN

T4: Boi2 SH3 (BOI2_YEAST), P39969
T4 chain: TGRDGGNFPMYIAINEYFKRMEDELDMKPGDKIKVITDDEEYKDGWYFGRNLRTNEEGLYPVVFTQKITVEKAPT

T5: Yfr024 SH3 (LSB3_YEAST), P43603
T5 chain: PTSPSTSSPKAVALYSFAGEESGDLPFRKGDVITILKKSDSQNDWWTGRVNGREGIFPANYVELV


Tests used:
Experiment in all cases: SPOT array
[1] = target: T1, Yhr016c SH3 (YSC84_YEAST), P32793
[2] = target: T2, Rvs167 SH3 (RV167_YEAST), P39743
[3] = target: T3, Boi1 SH3 (BOI1_YEAST), P38041
[4] = target: T4, Boi2 SH3 (BOI2_YEAST), P39969
[5] = target: T5, Yfr024 SH3 (LSB3_YEAST), P43603

Row | Binder | normalised SPOT signal, Boehringer light units (BLU); mean over the file's lines of this peptide [1] | normalised SPOT signal, Boehringer light units (BLU); mean over the file's lines of this peptide [2] | normalised SPOT signal, Boehringer light units (BLU); mean over the file's lines of this peptide [3] | normalised SPOT signal, Boehringer light units (BLU); mean over the file's lines of this peptide [4] | normalised SPOT signal, Boehringer light units (BLU); mean over the file's lines of this peptide [5]
1 | STPPTLPPRRIEDP [YMR192W 200-213] | 49300 | 24400 | 194 | 44.5 | 27500
2 | SSYPMNPPKISFMQ [YGR133W 86-99] | 215 | 65.4 | 17.1 | 111 | 440
3 | TDYPFKPPKISFTT [YBR082C 59-72] | 116 | 43.3 | 54.7 | 89.1 | 374
4 | SSTPIVPNRLKTVL [YHR164C 158-171] | 1960 | 1490 | 56.2 | 10.8 | 6570
5 | STRPQMPSRTRETA [YJR090C 50-63] | 37.5 | 74.7 | 311 | 43.5 | 4030
6 | STSPPRPKRIVVAI [YDR538W 48-61] | 1340 | 182 | 356 | 79.7 | 3980
7 | TDSPQLPSKDKSQE [YDL197C 472-485] | 95.8 | 95.6 | 116 | -0 | 4380
8 | TEAPMNPLKNREQM [YHR129C 114-127] | 319 | 21.5 | 1.9 | 56.4 | 395
9 | SSTPTTPERPKRKS [YHR182W 758-771] | 31700 | 579 | 818 | 36.8 | 58100
10 | TDYPFKPPKVNFTT [YDR059C 59-72] | 232 | 93.6 | 58.8 | 65.8 | 570
11 | SSQPRPPPRPQQNP [YGR268C 71-84] | 2040 | 956 | 69.2 | 5.7 | 8620
12 | SSRPTSPVRKARST [YER173W 28-41] | 317 | 98.3 | 368 | 73.1 | 1780
13 | TEPPMNPLKNREKM [YDL029W 109-122] | 125 | 147 | 87.1 | 55.1 | 648
14 | SSSPFIPKKRKPRS [YLR430W 2218-2231] | 258 | 42.9 | 76.5 | 92 | 1970
15 | SSRPMPPIRGPKRR [YLR147C 88-101] | 1900 | 771 | 1100 | 376 | 11600

Other lines, results leading:

Row | normalised SPOT signal, Boehringer light units (BLU); mean over the file's lines of this peptide [1] | normalised SPOT signal, Boehringer light units (BLU); mean over the file's lines of this peptide [2] | normalised SPOT signal, Boehringer light units (BLU); mean over the file's lines of this peptide [3] | normalised SPOT signal, Boehringer light units (BLU); mean over the file's lines of this peptide [4] | normalised SPOT signal, Boehringer light units (BLU); mean over the file's lines of this peptide [5] | Binder
16 | 119 | 56.5 | 88.1 | 46.1 | 94.9 | TDLPVNPPRDDKEW [YNR021W 264-277]
17 | 0 | 33.8 | 136 | 58.5 | 0 | TDGPIDPFKEPKTS [YPR018W 481-494]
18 | 58900 | 13200 | 275 | 41.4 | 30400 | TAAPATPPRHISNN [YPR040W 50-63]
19 | 72500 | 57900 | 5220 | 90.9 | 20400 | STSPKLPPRGKQRE [YPL249C 293-306]
20 | 1780 | 122 | 69.1 | 36 | 5490 | TDPPPQPRRLSDIV [YPR115W 471-484]
21 | 127 | 44.5 | 100 | 10.3 | 179 | SVLPQTPLKDVMGG [YOR326W 1092-1105]
22 | 244 | 81.7 | 50.9 | 36.1 | 534 | TATPSSPKRMHSSI [YNL321W 116-129]
